{"source": "patent US20210171652A1", "about": "(University of Pennsylvania, published 2021)", "binders": {"B1": {"name": "KP3-17 (anti-Rh17), as used in Example 8 (antibody, V domains shown)", "VH": "EVQLLESGPGLLKPSETLSLTCAVSGAPISNYWWSWIRQSPGKGLEWIGEIDGSIYTTYYNPSLKSRVAISKDTSKNRLSLKLTSVTAADTAVYYCAREGQNPLVPTYGSTGFGLDFWGHGLAVTVSS", "VL": "AAELTQSPSSLSASVGDRVTITCQASQGISSWLAWYQQKPGKAPKLLIYKASSLQSGVPSRFSGSGSGTDFTLTISSLQSEDFATYYCQQYSSSPRTFGQGTKVEIK"}, "B2": {"name": "KP3-17 Fab/phage clone (anti-RHCE, Rh17) (Fab, V domains shown)", "VH": "B1 VH", "VL": "B1 VL"}, "B3": {"name": "KP3-11 Fab/phage clone (anti-RHCE, Rh17) (Fab, V domains shown)", "VH": "EVQLLESGPGLVKPSETLSLTCGVSGASISNYWWSWIRQSPGKGLEWIGEIDGSTYSTHYNPSLKGRVTISKDASKNQLSLRLTSVTAADTAVYYCAREGQDPLAPTLATSGSGLDSWGRGLVVSVSS", "VL": "ELQMTQSPSSLSASLGDRVTITCRASENVNNYLHWYQQKPGKAPKLLIYAASTLQSGVPSRFSGSGSGTDFTLTISSLQPEDVATYYCQHSYGTPLTFGGGTKVEIK"}, "B4": {"name": "KP3-14 Fab/phage clone (anti-RHCE, Rh17) (Fab, V domains shown)", "VH": "B3 VH with V12G, S125T", "VL": "ELQMTQSPSALSASVGDRVTISCRASQDIYSNLAWYQQKPGKAPKLLIYGASRLQSGIPSRFSASGAGTEFTLTISGLQPEDSAVYYCQEVHRNPFTFGPGTKLDIK"}, "B5": {"name": "aRh17 scFv (anti-RhCE), clone KP3-17 (scFv)", "scFv": "EVQLLESGPGLLKPSETLSLTCAVSGAPISNYWWSWIRQSPGKGLEWIGEIDGSIYTTYYNPSLKSRVAISKDTSKNRLSLKLTSVTAADTAVYYCAREGQNPLVPTYGSTGFGLDFWGHGLAVTVSSGGGGSGGGGSGGGGSAAELTQSPSSLSASVGDRVTITCQASQGISSWLAWYQQKPGKAPKLLIYKASSLQSGVPSRFSGSGSGTDFTLTISSLQSEDFATYYCQQYSSSPRTFGQGTKVEIK", "modifications": "radio-iodinated (125I) or amine-labelled with AlexaFluor 488/647 in the binding assays; sites not stated", "notes": "scFv produced as H2N-VH-(GGGGS)3-VL-FLAGx3-COOH in E. coli periplasm (pBAD/gIII); Macaque-derived; also called anti-Rh17 scFv; aRHCE scFv; not shown: C-terminal FLAGx3 tag"}, "B6": {"name": "aWrb scFv (anti-Band3/GPA), clone KP2-23 (scFv)", "scFv": "EVQLLESGPGLVKPSETLSLTCTVSGSSLSSAYGWNWIRQPPGKGLEWIGSIGGSRDNTNYNPSLKRRVTISKDTSKNQFSLKLKSVTAADTAVYYCAQRGAYGYSYFDYWGQGVLVAVSSGGGGSGGGGSGGGGSAAELTLTQSPATLSLSPGETATLSCRASQTVGRNLAWYQQRPGQAPNLLVHSAYFRATGIPDRFSGSGSGTDFTLTISSLEPEDAGVYHCQQYNDLLPLTFGGGTKVEIK", "modifications": "radio-iodinated (125I) or amine-labelled with AlexaFluor 488/647 in the binding assays; sites not stated", "notes": "scFv produced as H2N-VH-(GGGGS)3-VL-FLAGx3-COOH in E. coli periplasm; also called anti-Wrb scFv; KP2-23 scFv; not shown: C-terminal FLAGx3 tag"}, "B7": {"name": "linear peptide corresponding to the 6th extracellular loop of human RhD (peptide, UniProt Q02161 346-360, looked up)", "peptide": "LLVLDTVGAGNGMIG", "notes": "domain: 6th extracellular loop; Negative control peptide; also called RhD peptide (negative control)"}}, "key": {"[1]": {"target": "T1, human RhCE protein (RHCE; Rh17/Hr0 epitope) on human red blood cells (human, UniProt P18577 2-417)", "T1 construct": "Target on intact human RBCs of donors", "T1 chain": "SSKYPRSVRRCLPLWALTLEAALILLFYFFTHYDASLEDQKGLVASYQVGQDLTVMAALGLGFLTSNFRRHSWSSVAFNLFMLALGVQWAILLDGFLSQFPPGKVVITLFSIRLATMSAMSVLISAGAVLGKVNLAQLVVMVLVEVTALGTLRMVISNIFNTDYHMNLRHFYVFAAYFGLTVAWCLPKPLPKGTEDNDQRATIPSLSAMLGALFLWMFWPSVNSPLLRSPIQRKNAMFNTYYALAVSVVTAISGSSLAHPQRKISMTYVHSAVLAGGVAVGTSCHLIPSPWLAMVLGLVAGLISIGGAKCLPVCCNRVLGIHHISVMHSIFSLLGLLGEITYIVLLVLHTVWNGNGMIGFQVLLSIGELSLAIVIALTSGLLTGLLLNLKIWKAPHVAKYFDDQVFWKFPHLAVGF", "assay": "Western blot of reduced, denatured proteins from human erythrocyte ghosts", "procedure": "(§1) A Western blot was performed to assess the binding of KP3-17 (anti-Rh17) to proteins extracted from mouse and human erythrocyte ghosts. Because proteins were denatured in reducing SDS-PAGE buffer prior to gel electrophoresis, the presence of binding is due to interaction with linear, and not conformational, epitopes. This is in contrast to anti-RhCE mAbs described by other groups, which recognize conformational epitopes.\nas §1, with “Rh17” for “KP3-17 (anti-Rh17)”, “ghosts (FIG. 25).” for “ghosts.”"}, "[2]": {"target": "T1, human RhCE protein (RHCE; Rh17/Hr0 …)", "assay": "Fab/phage binding assays on human RBCs incl. rare RBC types lacking conserved antigens", "procedure": "An IgG Fab/phage display library was prepared from the peripheral blood lymphocytes of a hyperimmunized macaque using homologous human V-region oligonucleotides (Siegel D L, R. M., Lee H, Blancher A., Production of large repertories of macaque mAbs to human RBCs using phage display. Transfusion, 1999. 39(S10): p. 92S, which is incorporated herein by reference). Fab/phage specific for human RBCs were isolated by panning on intact human RBCs. Monoclonal Fab/phage were grown to produce antibodies for immunoassays and their corresponding DNA was extracted for sequencing. To identify target epitopes, antibodies were screened against RBCs of known serologic phenotypes, including rare cells lacking highly conserved antigens, using standard immunohematologic techniques (Roback, J. D., Technical Manual. 2014: American Association of Blood Banks (AABB), which is incorporated herein by reference.)\nUsing antibody phage display, we identified non-human-primate Fab antibody fragments to antigenic determinants on human RBCs. By panning phage libraries on human RBCs, we produced a Fab/phage preparation with >10⁷ RBC-specific clones capable of agglutinating human RBCs. By performing binding assays against rare RBC types lacking highly conserved antigens and epitopes, we identified the target antigens of >30 of these clones. At least 34 clones bound the Wright b (Wrb) epitope formed by a Band 3/GPA interaction, present on the RBCs of essentially 100% of the human population. The Wrb epitope, determined by the protein sequence of Band 3, is a site of association between Band 3 with GPA, and GPA expression is simultaneously required for its presence on the membrane (Huang C H, Reid M E, Xie S S, Blumenfeld 00. Human red blood cell Wright antigens: a genetic and evolutionary perspective on glycophorin A-band 3 interaction. Blood. 1996; 87(9):3942-3947). At least 3 other clones bound to a highly-conserved epitope Rh17(Hr0) on human RhCE protein, also present on essentially 100% of the human population. Both these targets are specific for erythroid lineage (Rojewski M T, Schrezenmeier H, Flegel W A. Tissue distribution of blood group membrane proteins beyond red cells: evidence from cDNA libraries. Transfus Apher Sci."}, "[3]": {"target": "T1, human RhCE protein (RHCE; Rh17/Hr0 …)", "assay": "dissociation of 125I-labelled protein from saturated human RBCs", "procedure": "(§2) Recombinant proteins were radiolabeled with Na¹²⁵I (Perkin Elmer, Exton, Pa.) using pre-formulated iodination reagent (Pierce Iodination Reagent, Thermo Fisher Scientific, Carlsbad, Calif.) per the manufacturer's protocol. Radiochemical purity was verified by instant thin layer chromatography on silica and was typically >95%. Radiolabeled proteins were added to human RBCs at 0.02% hematocrit in PBS with 2% human AB serum. Binding was allowed to reach equilibrium over 4 hours at 37 degrees C. After binding, cell suspensions were rapidly washed at least four times with cold PBS. The resulting cell pellet was counted using a Perkin Elmer Wizard2 gamma counting system. Dissociation of the fusion proteins was assessed using RBCs saturated with radiolabeled proteins, washing unbound ligands, and placing in dilute suspensions prior to measurement of bound ligand at specified time points. Similar binding experiments were performed with fluorescently-labeled recombinant proteins and cells were analyzed by flow cytometry (Accuri C6, BD Biosciences, San Jose, Calif.). Fluorescently labeled proteins were produced by reaction with amine-reactive derivatives of fluorescent dyes AlexaFlour488 and AlexaFlour647 (typically 10- to 20-fold excess at pH 8) and purified using 10,000 MWCO centrifugal filter devices (EMD Milipore, Billerica, Mass.)."}, "[4]": {"target": "T1, human RhCE protein (RHCE; Rh17/Hr0 …)", "assay": "direct binding of 125I-labelled protein to human RBCs, 4 h at 37 C", "procedure": "as §2"}, "[5]": {"target": "T2, Band 3 / glycophorin A (Wright b, Wrb epitope) on human red blood cells (human, UniProt P02724 20-150)", "T2 construct": "whole, on cells; also called Band3/GPA; AE1", "T2 sequence 1": "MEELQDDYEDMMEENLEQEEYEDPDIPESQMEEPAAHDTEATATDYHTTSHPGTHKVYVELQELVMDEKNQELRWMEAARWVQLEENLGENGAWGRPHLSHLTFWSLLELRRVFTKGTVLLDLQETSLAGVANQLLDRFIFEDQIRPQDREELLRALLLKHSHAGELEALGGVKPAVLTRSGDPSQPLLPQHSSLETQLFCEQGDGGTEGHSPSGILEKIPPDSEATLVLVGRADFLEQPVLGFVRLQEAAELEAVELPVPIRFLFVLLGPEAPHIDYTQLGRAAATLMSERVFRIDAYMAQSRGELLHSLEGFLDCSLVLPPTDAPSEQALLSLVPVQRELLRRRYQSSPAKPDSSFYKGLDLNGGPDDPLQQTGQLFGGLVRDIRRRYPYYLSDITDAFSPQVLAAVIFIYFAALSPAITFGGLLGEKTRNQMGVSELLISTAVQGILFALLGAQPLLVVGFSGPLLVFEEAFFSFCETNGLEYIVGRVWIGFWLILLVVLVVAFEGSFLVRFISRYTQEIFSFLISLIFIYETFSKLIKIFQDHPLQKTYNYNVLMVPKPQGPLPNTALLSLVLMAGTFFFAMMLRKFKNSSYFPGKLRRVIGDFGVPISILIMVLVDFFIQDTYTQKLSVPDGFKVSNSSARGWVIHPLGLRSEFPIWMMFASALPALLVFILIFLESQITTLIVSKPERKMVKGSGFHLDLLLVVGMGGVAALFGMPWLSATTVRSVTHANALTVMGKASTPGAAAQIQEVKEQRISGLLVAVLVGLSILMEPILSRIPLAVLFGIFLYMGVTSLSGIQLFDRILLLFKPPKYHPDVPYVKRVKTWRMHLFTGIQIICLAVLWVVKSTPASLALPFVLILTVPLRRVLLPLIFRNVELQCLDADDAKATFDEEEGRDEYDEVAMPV", "T2 sequence 2": "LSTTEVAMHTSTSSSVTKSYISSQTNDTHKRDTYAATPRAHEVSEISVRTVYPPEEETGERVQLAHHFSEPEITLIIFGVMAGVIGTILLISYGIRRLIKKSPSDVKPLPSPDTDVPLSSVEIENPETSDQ", "assay": "dissociation of 125I-labelled protein from saturated human RBCs", "procedure": "as §2"}, "[6]": {"target": "T2, Band 3 / glycophorin A (Wright b, Wrb …)", "assay": "direct binding of 125I-labelled protein to human RBCs, 4 h at 37 C", "procedure": "as §2"}, "[7]": {"target": "B1", "assay": "peptide competition, flow cytometry on human erythrocytes; RhD loop peptide as negative control", "from_the_text": "Flow cytometry was used to assess the binding of anti-Rh17 to human erythrocytes in the presence and absence of linear peptides corresponding to the amino acid sequence 6th extracellular loop of human RhD (negative control) and human RhCE. […] (* denotes p<0.05 by 1-way ANOVA with Tukey's post-hoc test).\nRh17 recognizes an epitope present in the 6th extracellular loop of human RhCE. Flow cytometry was used to assess the binding of Rh17 to human erythrocytes in the presence and absence of linear peptides corresponding to the amino acid sequence 6th extracellular loop of human RhD (negative control) and human RhCE (FIG. 26)."}}, "note": "Changes are numbered by the printed parent chain. Names may count otherwise."}
{"binder": "B1", "values": [{"measurement": "binding result", "setting": "[1]", "value": "binds"}]}
{"binder": "B2", "values": [{"measurement": "binding result", "setting": "[2]", "value": "binds"}]}
{"binder": "B3", "values": [{"measurement": "binding result", "setting": "[2]", "value": "binds"}]}
{"binder": "B4", "values": [{"measurement": "binding result", "setting": "[2]", "value": "binds"}]}
{"binder": "B5", "values": [{"measurement": "koff", "setting": "[3]", "value": "2e-05", "unit": "s⁻¹"}, {"measurement": "Kd", "setting": "[4]", "value": 41.4, "unit": "nM"}]}
{"binder": "B6", "values": [{"measurement": "koff", "setting": "[5]", "value": "2.9e-05", "unit": "s⁻¹"}, {"measurement": "Kd", "setting": "[6]", "value": 21.3, "unit": "nM"}]}
{"binder": "B7", "values": [{"measurement": "binding result", "setting": "[7]", "value": "no binding"}]}
